Reference: US11066455B2, “Tmem100 peptides and variants thereof and their use in treating or preventing diseases or conditions” (The Johns Hopkins University, priority 2014, dated 2021)
* marks the point of attachment. Myristoyl = CCCCCCCCCCCCCC(=O)*

Experiments:
TRPV1 = biological target: T1, TRPV1 (Mus musculus, UniProt Q704Y3); test: Calcium imaging of DRG neurons, response to capsaicin (CAP); type: cell-based; conditions: peptide 200 nM pretreatment; 100 nM CAP; IB4-negative DRG neurons
T1 construct: calcium imaging data from the T100-Mut-treated (200 nM) DRG neurons; endogenous in cells; host or cells: primary mouse DRG neurons
Description: Calcium imaging assays were performed as previously described (Liu et al., 2009). Cells were loaded with 2 μM fura 2-acetomethoxy ester (Molecular Probes) for 30 min in the dark at room temperature or for 45 minutes at 37° C. for DRG and cell lines, respectively. After washing, cells were imaged at 340 and 380 nm excitation to detect intracellular free calcium under a fluorescent microscope (Nikon Eclipse TE2000-S) and Lambda 10B shutter (Sutter Instrument). The cells were bathed in calcium imaging buffer (pH 7.45, 130 mM NaCl, 3 mM KCl, 2.5 mM CaCl2, 10 mM HEPES, 10 mM glucose, 1.2 mM NaHCO3, with sucrose to increase osmolarity to 290 mOsm). […] Images were processed and analyzed with NIS-Elements BR 2.30 software (Nikon). […] The data was analyzed with the experimenter blinded to the genotypes or constructs transfected.
DRG from 3 to 4-week old mice were collected in cold DH10 medium (90% DMEM/F-12, 10% FBS, 100 U/ml penicillin, and 100 μg/ml Streptomycin, Gibco) and treated with enzyme solution in HBSS containing collagenase (1.65 mg/mL, Worthington CLS I) and dispase (3.55 mg/mL, GIBCO 17105-041) at 37° C. for 30 minutes. […] This efficiency was determined by mCherry(+) divided by total number of cells in the bright fields. […]

TRPA1 = system: T2, TRPA1; test: MO-gated whole-cell voltage clamp in CHO cells expressing TRPA1+TRPV1; type: cell-based; conditions: Vh=-60 mV; TRPA1+TRPV1+Tmem100-3Q (1:1:4) CHO cells
T2 construct: MO (10 μM)-evoked Ca2+ influx; other: TRPA1+TRPV1+Tmem100-3Q (1:1:4) CHO cells; MO (10 μM)-gated whole-cell current density; other: Vh=-60 mV; TRPA1+TRPV1+Tmem100-3Q (1:1:4) CHO cells; MO (10 μM)-induced single-channel activity (NPo); co-expressed with TRPA1+TRPV1 (1:1:4) in CHO cells
Description: Recordings were made in cell-attached single-channel or whole-cell voltage clamp configurations at 22-24° C. from the somata of small-to-medium mouse DRG neurons (15-35 pF) or CHO cells. For whole-cell configuration, holding potential (Vh) is −60 mV. Data were acquired and analyzed using an Axopatch 200B amplifier and pCLAMP9.0 software (Molecular Devices, Sunnyvale, Calif.). Borosilicate pipettes (Sutter, Novato, Calif.) were pulled and polished to resistances of 3-5 MΩ (in whole-cell and single-channel pipette solutions). Access resistance (Rs) was compensated (40-80%) when appropriate up to the value 7-10 MΩ for whole-cell configuration. Whole-cell recording data were filtered at 0.5 kHz and sampled at 2 kHz. Single-channels currents were filtered with an 8-pole, low pass Bessel filter at 0.1 kHz and sampled at 0.5 kHz, since dwelling time (τ) of the TRPA1 and TRPV1 single-currents were >0.5 sec. Whole-cell recorded data were rejected when Rs changed >20% during recording, leak currents were >100 pA, or input resistance was <200 MΩ.
Standard external solution (SES) for whole-cell patch recording contained (in mM): 140 NaCl, 5 KCl, 2 CaCl2, 1 MgCl2, 10 D-glucose and 10 HEPES, pH 7.4. Vehicle, which is 0.01% DMSO, was added to external solutions. […] The baseline activities of the cells were recorded for 1-2 min prior drug applications. […]

T1 sequence (Q704Y3 whole entry): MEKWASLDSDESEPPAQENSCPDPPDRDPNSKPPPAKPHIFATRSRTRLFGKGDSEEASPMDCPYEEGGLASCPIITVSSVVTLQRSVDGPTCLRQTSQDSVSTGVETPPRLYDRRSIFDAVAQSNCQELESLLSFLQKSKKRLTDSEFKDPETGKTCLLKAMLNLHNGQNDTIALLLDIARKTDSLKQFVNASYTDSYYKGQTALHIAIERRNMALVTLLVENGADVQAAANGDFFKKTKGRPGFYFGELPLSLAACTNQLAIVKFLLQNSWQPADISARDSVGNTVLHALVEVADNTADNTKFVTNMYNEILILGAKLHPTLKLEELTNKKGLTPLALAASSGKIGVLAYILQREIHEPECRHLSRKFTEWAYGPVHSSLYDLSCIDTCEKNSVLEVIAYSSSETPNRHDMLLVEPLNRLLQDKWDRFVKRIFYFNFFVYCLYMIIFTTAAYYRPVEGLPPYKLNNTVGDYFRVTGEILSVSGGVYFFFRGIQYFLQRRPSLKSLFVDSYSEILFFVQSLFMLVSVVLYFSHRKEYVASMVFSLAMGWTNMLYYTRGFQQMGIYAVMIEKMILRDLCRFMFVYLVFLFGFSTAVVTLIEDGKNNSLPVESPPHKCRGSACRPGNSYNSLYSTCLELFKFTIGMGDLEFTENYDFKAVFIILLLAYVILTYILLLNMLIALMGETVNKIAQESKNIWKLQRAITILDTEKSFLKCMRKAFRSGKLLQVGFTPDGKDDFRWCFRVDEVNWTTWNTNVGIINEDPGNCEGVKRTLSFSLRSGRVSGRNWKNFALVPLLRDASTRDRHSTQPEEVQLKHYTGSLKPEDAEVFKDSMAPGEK

myr-QRVLEQVLQNWSRRANVKQAQKFQVKCT-COOH (Myristoyl-QRVLEQVLQNWSRRANVKQAQKFQVKCT-OH; SMILES CCCCCCCCCCCCCC(=O)N[C@@H](CCC(N)=O)C(=O)N[C@@H](CCCNC(=N)N)C(=O)N[C@H](C(=O)N[C@@H](CC(C)C)C(=O)N[C@@H](CCC(=O)O)C(=O)N[C@@H](CCC(N)=O)C(=O)N[C@H](C(=O)N[C@@H](CC(C)C)C(=O)N[C@@H](CCC(N)=O)C(=O)N[C@@H](CC(N)=O)C(=O)N[C@@H](Cc1c[nH]c2ccccc12)C(=O)N[C@@H](CO)C(=O)N[C@@H](CCCNC(=N)N)C(=O)N[C@@H](CCCNC(=N)N)C(=O)N[C@@H](C)C(=O)N[C@@H](CC(N)=O)C(=O)N[C@H](C(=O)N[C@@H](CCCCN)C(=O)N[C@@H](CCC(N)=O)C(=O)N[C@@H](C)C(=O)N[C@@H](CCC(N)=O)C(=O)N[C@@H](CCCCN)C(=O)N[C@@H](Cc1ccccc1)C(=O)N[C@@H](CCC(N)=O)C(=O)N[C@H](C(=O)N[C@@H](CCCCN)C(=O)N[C@@H](CS)C(=O)N[C@H](C(=O)O)[C@@H](C)O)C(C)C)C(C)C)C(C)C)C(C)C) [scrambled]
percentage of DRG neurons responding to CAP (TRPV1): 16±1.3%

B1: Tmem100-3Q mutant (full-length, mouse) (protein)
chain: MTEESTKENLGAPKSPTPVTMEKNPKREVVVTTGPLVSEVQLMAATGGAELSCYRCIIPFAVVVFITGIVVTAVAYSFNSHGSIISIFGLVLLSSGLFLLASSALCWKVRQRNKKVQQQESQTALVVNQRCLFA
MO (10 μM)-gated whole-cell current density (TRPA1): 39.16±12.5 pA/pF
